Columns and labels:
[1] = biological target: T1, cynomolgus CD40 overexpressed on CHO-S cells (cynomolgus, UniProt G7PG38 21-278); test: flow cytometry on CHO-S cells overexpressing cynomolgus CD40
T1 construct: whole, on cells; also called cynomolgus CD40 expressing CHO cells
Protocol: (§1) Specifically, by transfecting the pCHO1.0 vector (Invitrogen) with the human/cynomolgus CD40 cDNA cloned into the MCS and followed by applying pressure selection, CHO-S cells overexpressing human/cynomolgus CD40 were generated. The expanded CD40 overexpressing cells were adjusted to the appropriate cell density and plated on 96-well flow plate. After centrifugation, the cells were incubated with a gradient-diluted sample at 4° C. for 30 minutes. and the cells were then washed twice with PBS, and followed by incubation with a fluorescent secondary antibody diluted to the appropriate concentration, at 4° C. for 30 min. Following two washes with PBS, cells were resuspended in PBS and fluorescent signals were detection on the CytoFlex flow cytometer to calculate the corresponding MFI.

[2] = biological target: T2, cynomolgus CD40-Fc protein (cynomolgus, UniProt G7PG38 21-193); test: BLI (ForteBio), IgG on AHQ sensor, 100 nM CD40-Fc in solution, bivalent, 1:1 model
T2 construct: not shown: Fc part
Protocol: The antibody-loaded sensor was further incubated in a high concentration of irrelevant intact antibody solution for 10 minutes to saturate and block the Fc binding sites on the AHQ sensor. The blocked sensor was then incubated with 100 nM CD40-Fc antigen until a plateau was reached, and then the sensor was transferred to the analysis buffer for at least 2 minutes for dissociation rate measurement. Kinetic analysis was performed using a 1:1 binding model.

[3] = biological target: T2, cynomolgus CD40-Fc protein; test: BLI (ForteBio), CD40-Fc on AHQ sensor, 100 nM Fab in solution, monovalent, 1:1 model
Protocol: (§2) The antigen-loaded sensor was incubated with 100 nM Fab solution until a plateau was reached, and then the sensor was transferred to the analysis buffer for at least 2 minutes for dissociation rate measurement. Kinetic analysis was performed using a 1:1 binding model.

[4] = biological target: T3, human CD40-Fc protein (human, UniProt P25942 21-193); test: as above
T3 construct: also called human CD40-Fc fusion protein; CD40-Fc antigen; not shown: Fc part
Protocol: as §2

[5] = biological target: T4, human CD40 overexpressed on cells (human, UniProt P25942 21-277); test: flow cytometry on CHO-S cells overexpressing human CD40
T4 construct: Cells transfected with human CD40 cDNA; also called CHO-huCD40 cells; CHO-S cells overexpressing human CD40
Protocol: as §1

T3 sequence (P25942 21-193 limits assumed): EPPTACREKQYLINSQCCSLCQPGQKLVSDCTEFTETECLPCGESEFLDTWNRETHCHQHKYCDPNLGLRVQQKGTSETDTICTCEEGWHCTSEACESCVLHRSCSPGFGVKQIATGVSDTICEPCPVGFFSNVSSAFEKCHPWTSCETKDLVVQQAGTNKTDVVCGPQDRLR
T4 sequence (P25942 21-277 limits assumed): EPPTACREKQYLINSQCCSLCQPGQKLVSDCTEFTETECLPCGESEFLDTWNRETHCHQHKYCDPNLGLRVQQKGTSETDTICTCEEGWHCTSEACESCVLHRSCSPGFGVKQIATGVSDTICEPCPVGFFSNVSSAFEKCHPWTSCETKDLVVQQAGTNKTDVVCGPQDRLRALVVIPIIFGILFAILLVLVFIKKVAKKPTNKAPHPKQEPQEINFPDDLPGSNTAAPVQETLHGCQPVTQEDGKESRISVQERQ

| Binder | EC50 [1] | Kd [2] | Kd [3] | Kd [4] | EC50 [5] |
| --- | --- | --- | --- | --- | --- |
| ADI-47741 (antibody, human IgG1, kappa, V domains shown) VH: QVQLQESGPGLVKPSETLSLTCTVSGGSISSYYWSWIRQPPGKGLEWIGSIYYSGSTNYNPSLKSRVTISVDTSKNQFSLKLSSVTAADTAVYYCARDANYYKWHPYWGQGTLVTVSS VL: EIVLTQSPGTLSLSPGERATLSCRASQSVSSDYLAWYQQKPGQAPRLLIYGASSRATGIPDRFSGSGSGTDFTLTISRLEPEDFAVYYCQQVLSYPPTFGGGTKVEIKR | 17.9 nM | 0.559 nM |  |  |  |
| ADI-47741 Fab (Fab, V domains shown) VH: QVQLQESGPGLVKPSETLSLTCTVSGGSISSYYWSWIRQPPGKGLEWIGSIYYSGSTNYNPSLKSRVTISVDTSKNQFSLKLSSVTAADTAVYYCARDANYYKWHPYWGQGTLVTVSS VL: EIVLTQSPGTLSLSPGERATLSCRASQSVSSDYLAWYQQKPGQAPRLLIYGASSRATGIPDRFSGSGSGTDFTLTISRLEPEDFAVYYCQQVLSYPPTFGGGTKVEIK |  |  | 71 nM |  |  |
| ADI-55136 Fab (Fab, V domains shown) VH: QVQLVESGGGVVQPGRSLRLSCAASGFTFSSYGMHWVRQAPGKGLEWVAVISYHASSKYYADSVKGRFTISRDNSKNTLYLQMNSLRAEDTAVYYCARDTSRGHDIWGQGTMVTVSS VL: EIVLTQSPGTLSLSPGERATLSCRASQSVSSSYLAWYQQKPGQAPRLLIYGASSRATGIPDRFSGSGSGTDFTLTISRLEPEDFAVYYCQQYADYPPFTFGGGTKVEIK |  |  | 78.1 nM |  |  |
| ADI-55142 Fab (Fab, V domains shown) VH: QVQLVESGGGVVQPGRSLRLSCAASGFTFEKYGMHWVRQAPGKGLEWVAVISYEGEKKYYADSVKGRFTISRDNSKNTLYLQMNSLRAEDTAVYYCARDTSRGHDIWGQGTMVTVSS VL: EIVLTQSPGTLSLSPGERATLSCRASQSVSYSYLAWYQQKPGQAPRLLIYGASSRANGIPDRFSGSGSGTDFTLTISRLEPEDFAVYYCSDYADYPPFTFGGGTKVEIK |  |  | 2.81 nM | 2.74 nM |  |
| ADI-55140 Fab (Fab, V domains shown) VH: QVQLVESGGGVVQPGRSLRLSCAASGFTFEKYGMHWVRQAPGKGLEWVAVIHYEGSIKYYADSVKGRFTISRDNSKNTLYLQMNSLRAEDTAVYYCARDTSRGHDIWGQGTMVTVSS VL: EIVLTQSPGTLSLSPGERATLSCRASQSVSYDYLAWYQQKPGQAPRLLIYGASTRANGIPDRFSGSGSGTDFTLTISRLEPEDFAVYYCGEYADYPPFTFGGGTKVEIK |  |  | 5.42 nM | 5.77 nM |  |
| ADI-55144 Fab (Fab, V domains shown) VH: QVQLVESGGGVVQPGRSLRLSCAASGFTFEKYGMHWVRQAPGKGLEWVAVISYEGTKKYYADSVKGRFTISRDNSKNTLYLQMNSLRAEDTAVYYCARDTSRGHDIWGQGTMVTVSS VL: EIVLTQSPGTLSLSPGERATLSCRASQSVSYSYLAWYQQKPGQAPRLLIYGASSLATGIPDRFSGSGSGTDFTLTISRLEPEDFAVYYCQQYSDYPPFTFGGGTKVEIK |  |  | 2.21 nM | 2.08 nM |  |
| ADI-55136 (antibody, human IgG1, kappa, V domains shown) VH: QVQLVESGGGVVQPGRSLRLSCAASGFTFSSYGMHWVRQAPGKGLEWVAVISYHASSKYYADSVKGRFTISRDNSKNTLYLQMNSLRAEDTAVYYCARDTSRGHDIWGQGTMVTVSS VL: EIVLTQSPGTLSLSPGERATLSCRASQSVSSSYLAWYQQKPGQAPRLLIYGASSRATGIPDRFSGSGSGTDFTLTISRLEPEDFAVYYCQQYADYPPFTFGGGTKVEIKR | 4.83 nM | 0.383 nM |  |  |  |
| ADI-55144-2 (antibody, human IgG1, kappa, V domains shown) VH: QVQLVESGGGVVQPGRSLRLSCAASGFTFEKYGMHWVRQAPGKGLEWVAVISYEGTKKYYAESVKGRFTISRDNSKNTLYLQMNSLRAEDTAVYYCARDTSRGHDIWGQGTMVTVSS VL: EIVLTQSPGTLSLSPGERATLSCRASQSVSYSYLAWYQQKPGQAPRLLIYGASSLATGIPDRFSGSGSGTDFTLTISRLEPEDFAVYYCQQYSDYPPFTFGGGTKVEIKR | 15 nM |  |  |  | 11.5 nM |

— patent publication US20260265391A1 (BIOTHEUS, published 2026)
